pKd: −log10 of the molar value.

Experiment [1] addresses fluorescent tagged HER2 (human) (UniProt P04626). In words: MST; Monolith NT.115; fluorescent tagged HER2, titration of purified GST fusion proteins.
Experiment [2] has as its target eGFP-MUC4β_(ΔEGF2) (human). In words: MST; Monolith NT.115; native fluorescence of the eGFP fusion proteins followed in cell lysate, titration against recombinant HER2-Fc; triplicate with two distinct cell lysates (n = 6).

As for GST-MUC4_(EGF1) (domain or fragment), the pKd in experiment [1] is 7.12.

For the substance GST-MUC4_(EGF2) (domain or fragment), the pKd in experiment [1] is 6.62. As to “recombinant HER2-Fc (from UniProt P04626 23-652) (Fc fusion)”, in experiment [2], the pKd was 7.01.

By pKd is commonly meant −log10 of the Kd, conventionally taken in molar units.
